Measurements: the supplement of paper PMC10724198
± gives the standard deviation of the averaged measurements.

Tested on: Saccharomyces cerevisiae
Experiment: protein stability index of tFT-peptide fusion (C-terminal peptide) (PSI (0-1 scale)); higher = more stable (slower turnover)
Settings: genetic background: wild type; temperature: 30 C
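Further: PSI is a weighted mean of sequencing reads over stability bins, variants kept only with over 10 reads, mCherry proximal and sfGFP distal, peptide attached via GGGS linker.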

Sequence	protein stability index
PVGDWPRGKGAD	0.684 ± 0.13
GKLHKNTDEIET	0.762 ± 0.062
VVRARLYVWWLG	0.664 ± 0.13
FELEQNCESATS	0.706 ± 0.013
PSPPPAVLPPPP	0.693 ± 0.039
ASRISTAFPVPP	0.685 ± 0.057
SSPRQITTLTRL	0.757 ± 0.037
TIATASWILRRL	0.624 ± 0.0045
GLVVGGLRPKRV	0.68 ± 0.004
LPRPPPLAGPPL	0.734 ± 0.013
RARAIGVGAGRG	0.691 ± 0.019
LAHACQRRQTEA	0.786 ± 0.11
HDAKIGTSTCWV	0.654 ± 0.024
VAYSKWIGEIRD	0.71 ± 0.038
FRGRSSLSTSCG	0.69 ± 0.023
PPHPAPPLQPQT	0.64 ± 0.14
LGHITLSERFGS	0.705 ± 0.21
WGVGGVLEVLLG	0.522 ± 0.022
SSPPPSAHPLPS	0.6933 ± 0.0055
PPPPPRPRSLLS	0.711 ± 0.063
LDSWKQDLYTVC	0.674 ± 0.033

Sequence	protein stability index
RLCLLVVPLLPP	0.665 ± 0.055
APPPREAATSIA	0.699 ± 0.036
SMSSERYIKRGN	0.702 ± 0.011
VRDGGLCYLAQL	0.667 ± 0.019
SSSLPPSHFYPP	0.718 ± 0.064
AWFIRSLVAYFL	0.545 ± 0.017
AVACGGASGCGC	0.707 ± 0.071
SSRTPPRFYSLP	0.708 ± 0.0074
FSVDASLPLSSV	0.6749 ± 0.0063
GLGLHKDGSTGG	0.6093 ± 0.003
VQSSLFGLGVQC	0.566 ± 0.033
VTFRTFFVPTFK	0.662 ± 0.097
RSSLAVSTKVER	0.639 ± 0.02
SHPLFLPALSPP	0.721 ± 0.061
FGSVFMSFFLCS	0.522 ± 0.037
ECGLRAAKPVWI	0.702 ± 0.063
LSLSTTLSADLY	0.678 ± 0.021
PRPRTPPPLLSF	0.687 ± 0.057
LSFFLSSALLHP	0.7 ± 0.028
KGKKRKKKRNFR	0.68 ± 0.031
GGAPRSSGRAGE	0.691 ± 0.028

Sequence	protein stability index
GGGEYHTIMRTT	0.786 ± 0.2
LRSVISLSSLFS	0.686 ± 0.011
LGWPWGGRGEGL	0.606 ± 0.0069
SPPPNSLPPPPP	0.7181 ± 0.0043
LLRLDGGAGRSV	0.627 ± 0.079
QTGQVSRVSPHD	0.672 ± 0.031
TSNLRIISTWRV	0.685 ± 0.024
RGGGGGGQVAVG	0.711 ± 0.049
WLLKGTVTLMMW	0.5687 ± 0.0031
WSVGRVGGCGAR	0.704 ± 0.052
LSRGLVVSFVLK	0.662 ± 0.014
RVPGGLPCRPSL	0.775 ± 0.041
SLRLPPPRRLPV	0.658 ± 0.12
AMGSDRPPQSGY	0.695 ± 0.012
KNKQQKKNKQKR	0.643 ± 0.045
PPPTHPTSTSSI	0.699 ± 0.02
PVPNPPPAPRSS	0.698 ± 0.062
SLLPPPPPPAPS	0.627 ± 0.011
LPPSSPLPPPPP	0.77 ± 0.047
RHFFRYYLDHPS	0.617 ± 0.035
LPPPPLLIPLPT	0.605 ± 0.062

Sequence	protein stability index
NKGHGAHSRECE	0.65 ± 0.025
DDQYVGRYYNKT	0.676 ± 0.019
SFVFVCDGGSRG	0.669 ± 0.017
RGEERGGTRPAG	0.6788 ± 0.0037
LKALNKFEDTGN	0.668 ± 0.018
EGGFGSVLGGRG	0.724 ± 0.058
SFVVAVALGRLR	0.5734 ± 0.003
PRGGLGTGWGRR	0.731 ± 0.079
RCSLGWKRFDWR	0.706 ± 0.061
SDSIVTGCLKYP	0.696 ± 0.014
SVLRGLCFDGYR	0.7252 ± 0.0064
WGWGGGRGGMGG	0.716 ± 0.022
GKTITNENPKGH	0.705 ± 0.021
LCSSSLRPFFPE	0.754 ± 0.024
GWGGGSMDLRDR	0.702 ± 0.011
PPLPPPTPRPAP	0.754 ± 0.058
PPPLTSPPHPPP	0.724 ± 0.029
SSLSLDERKPRT	0.712 ± 0.23
